This data set concerns the molecule itself. In words: SEC. (Size exclusion chromatography separates by hydrodynamic size, large species first.)

The record followed here is article PMC2737084 (Biochemistry, 2009).

B1: Pseudomonas aeruginosa bacterioferritin B (natural protein)
chain: not shown
B1: the stoichiometry N (in general, the number of molecules, sites or subunits per partner or assembly) came out at 24.
